The test system of experiment [1] is hPSC-derived definitive endoderm (DE) cultures. Kind of experiment: Endoderm patterning of hPSC-derived DE cultures with growth factors/antagonists, qPCR and immunofluorescence. Type of experiment: cell-based, human. (In general: Real-time PCR tracks product formation cycle by cycle.)
Experimental: Following DE induction, cells were treated for three days with growth factors/antagonists in RPMI 1640 with 2.0% dFBS. […] RA (2 μM; Sigma Aldrich) is added on the final day. Three-dimensional growth and antral specification. Posterior foregut spheroids were embedded in Matrigel (BD Biosciences) as previously described^10, 12 and subsequently grown in Advanced DMEM/F12 (Invitrogen) supplemented with N2 (Invitrogen), B27 (Invitrogen), L-glutamine, 10 μM HEPES, penicillin/streptomycin, and EGF (100 ng ml^−1; R&D Systems). For antral specification, RA and noggin were added for the first three days of three-dimensional growth. For endocrine cell specification, the EGF concentration is lowered to 10 ng ml^−1 at day 30.
The media was changed every day.
All tissues were fixed in 4% paraformaldehyde for either one hour at room temperature for frozen processing or overnight at 4° C. for paraffin processing. For frozen sections, tissue was protected in 30% sucrose overnight at 4° C., then embedded in OCT (Tissue-Tek), and cut at 10 μm. For paraffin sections, tissue was processed through a graded ethanol series, followed by xylene, and then embedded in paraffin and cut at 7 μm. Tissue culture cells were fixed for 15 minutes at room temperature and stained directly. For staining, frozen slides were thawed to room temperature and rehydrated in PBS, while paraffin slides were deparaffinized and subjected to antigen retrieval. Slides were blocked in 5% normal donkey serum (Jackson Immuno Research) in PBS plus 0.5% Triton-X for 30 minutes at room temperature. Primary antibodies (listed in Methods Table 1) were diluted in blocking buffer and incubated overnight at 4° C. Slides were washed in PBS and incubated with secondary antibody for one hour at room temperature, and coverslips were mounted using Fluoromount-G (Southern Biotech). Confocal images were captured on a Nikon A1Rsi inverted confocal microscope.
Experiment [2] deals with hPSC-derived foregut spheroids. Kind of experiment: Fundus specification protocol: Wnt signaling at days 6-9 of gastric organoid differentiation, qPCR. Type of experiment: cell-based, human. The note with it: Wnt3a at 100 ng/mL and 500 ng/mL. The procedure: Next, the function of Wnt signaling in the regulation of fundus-antrum patterning at days 6-9 of the gastric organoid differentiation protocol was tested. Addition of Wnt3a (at 100 ng/mL and 500 ng/mL) had no effect on spheroid gene expression, but it […] expression of the Wnt target gene Axin2. Thus, the effects of the small molecule CHIR99021 (CHIR; 2 uM) were tested. CHIR99021 stimulates Wnt signaling in a receptor-independent fashion.
Analysis was performed using the ΔΔCT method.

The mark [3] stands for this setting: DE cultures after three days, even in the presence of WNT/FGF.

B1: Noggin: BMP antagonist / BMP inhibitor (R&D Systems) (protein, UniProt Q13253 28-232, looked up)
Noggin: QHYLHIRPAPSDNLPLVDLIEHPDPIFDPKEKDLNETLLRSLLGGHYDPGFMATSPPEDRPGGGGGAAGGAEDLAELDQLLRQRPSGAMPSEIKGLEFSEGLAQGKKQRLSKKLRRKLQMWLWSQTFCPVLYAWNDLGSRFWPRYVKVGSCFSKRSCSVPEGMVCKPSKSVHLTVLRWRCQRRGGQRCGWIPIQYPIISECKCSC
With B1, in experiment [1] (setting [3]), the CDX2 expression entry is “repressed” and the “foregut marker SOX2 expression” value is recorded as “induced”. Besides, in experiment [1] (response to noggin), the “BMP target genes MSX1/2, qPCR” value is listed as “suppressed”.

B2: Wnt3a: recombinant WNT3A, Wnt ligand (R&D Systems) (protein, UniProt P56704 19-352, looked up)
Protein Wnt-3a: SYPIWWSLAVGPQYSSLGSQPILCASIPGLVPKQLRFCRNYVEIMPSVAEGIKIGIQECQHQFRGRRWNCTTVHDSLAIFGPVLDKATRESAFVHAIASAGVAFAVTRSCAEGTAAICGCSSRHQGSPGKGWKWGGCSEDIEFGGMVSREFADARENRPDARSAMNRHNNEAGRQAIASHMHLKCKCHGLSGSCEVKTCWWSQPDFRAIGDFLKDKYDSASEMVVEKHRESRGWVETLRPRYTYFKVPTERDLVYYEASPNFCEPNPETGSFGTRDRTCNVSSHGIDGCDLLCCGRGHNARAERRREKCRCVFHWCCYVSCQECTRVYDVHTCK
For B2, in experiment [2], the “effect on spheroid gene expression” value is recorded as “no effect” and the “expression of the Wnt target gene Axin2” value is reported as “did induce”.

Values taken from patent publication US12241090B2, “Methods and systems for converting precursor cells into gastric tissues through directed differentiation” (CHILDREN'S HOSPITAL MEDICAL CENTER, priority 2014, dated 2025).
